Consider 38 substances from US20240150447A1.

The target of assay [1] is human FcRn and human B2M (beta-2-microglobulin) expressed on MDCK II cells (human) (UniProt P55899). Kind of assay: cell-based or functional assay.
Assay [2] deals with human FcRn protein (human) (UniProt P55899). The assay is described as follows: SPR, Ab on Protein L chip, hFcRn in flow, pH 6.0. Background: Surface plasmon resonance follows binding to a sensor surface in real time, without labels.
The target is the same in assay [3]. Kind of assay: SPR, Ab on Protein L chip, hFcRn in flow, pH 7.4.

Chain of human FcRn and human B2M (beta-2-microglobulin) expressed on MDCK II cells (human) (P55899 24-365 limits assumed, chain 1 of 2): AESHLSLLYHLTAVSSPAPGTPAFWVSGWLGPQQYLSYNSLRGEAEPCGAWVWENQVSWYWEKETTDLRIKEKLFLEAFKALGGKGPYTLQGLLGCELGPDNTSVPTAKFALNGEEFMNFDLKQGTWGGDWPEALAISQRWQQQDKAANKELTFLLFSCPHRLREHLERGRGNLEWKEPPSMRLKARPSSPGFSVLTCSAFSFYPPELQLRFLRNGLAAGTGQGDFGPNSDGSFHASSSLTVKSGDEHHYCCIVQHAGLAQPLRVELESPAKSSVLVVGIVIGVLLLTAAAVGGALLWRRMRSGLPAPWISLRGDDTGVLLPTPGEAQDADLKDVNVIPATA
Chain of human FcRn and human B2M (beta-2-microglobulin) expressed on MDCK II cells (human) (b2m, as listed by the source limits assumed, chain 2 of 2): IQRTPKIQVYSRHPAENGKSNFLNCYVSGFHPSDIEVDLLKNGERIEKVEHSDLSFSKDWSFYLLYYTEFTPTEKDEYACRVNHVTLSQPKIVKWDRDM
Chain of human FcRn protein (human) (P55899 24-297 limits assumed, chain 1 of 2): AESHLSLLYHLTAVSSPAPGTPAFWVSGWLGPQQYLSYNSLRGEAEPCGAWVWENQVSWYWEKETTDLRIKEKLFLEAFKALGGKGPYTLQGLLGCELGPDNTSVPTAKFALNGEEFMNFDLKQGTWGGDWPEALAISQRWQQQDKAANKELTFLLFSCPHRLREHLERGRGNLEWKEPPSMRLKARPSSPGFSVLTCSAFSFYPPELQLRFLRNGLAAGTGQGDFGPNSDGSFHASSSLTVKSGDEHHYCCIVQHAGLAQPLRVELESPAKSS
Chain of human FcRn protein (human) (chain, as listed by the source limits assumed, chain 2 of 2): as the sequence (b2m, as listed by the source limits assumed, chain 2 of 2) above

Consider “anti-O4 hIgG1 M252Y/T256E/V308P/N434Y (antibody)”, for which the Transcytosis Normalized to IAHA at pH 6.0 (ratio to IAHA) in assay [1] worked out at 124.

Consider “anti-O4 hIgG1 M252Y/T256W/V308P/N434Y (antibody)”, for which the Transcytosis Normalized to IAHA at pH 6.0 (ratio to IAHA) in assay [1] stood at 588.

“anti-O4 hIgG1 WT (wild type Fc) (antibody)”: in assay [1], the Transcytosis Normalized to IAHA at pH 6.0 (ratio to IAHA) turned out to be 122.

With “anti-O4 hIgG1 M252Y/T256L/V308P/N434W (antibody)”, in assay [1], the Transcytosis Normalized to IAHA at pH 6.0 (ratio to IAHA) came out at 217.

As for anti-O4 hIgG1 M252Y/V308P (antibody), in assay [1], the Transcytosis Normalized to IAHA at pH 6.0 (ratio to IAHA) is 281.

As for “anti-O4 hIgG1 M252Y/T256V/V308P/N434Y (antibody)”, in assay [1], the Transcytosis Normalized to IAHA at pH 6.0 (ratio to IAHA) was 183.

On to “anti-O4 hIgG1 M252Y/T256E/V308P/N434W (antibody)”, for which the Transcytosis Normalized to IAHA at pH 6.0 (ratio to IAHA) in assay [1] came to 154.

With “anti-O4 hIgG1 M252Y/T256D/V308P/N434W (antibody)”, the Transcytosis Normalized to IAHA at pH 6.0 (ratio to IAHA) in assay [1] was found to be 153.

Take “anti-O4 hIgG1 M252Y/T256P/V308P/N434W (antibody)”: the Transcytosis Normalized to IAHA at pH 6.0 (ratio to IAHA) in assay [1] amounted to 208.

On to “anti-O4 hIgG1 M252Y/T256W/V308P/N434W (antibody)”, for which, in assay [1], the Transcytosis Normalized to IAHA at pH 6.0 (ratio to IAHA) was found to be 147.

Take “anti-O4 hIgG1 M252Y/T256R/V308P/N434Y (antibody)”: the Transcytosis Normalized to IAHA at pH 6.0 (ratio to IAHA) in assay [1] was 655.

For “anti-O4 hIgG1 M252Y/T256L/V308P/N434Y (antibody)”, the Transcytosis Normalized to IAHA at pH 6.0 (ratio to IAHA) in assay [1] turned out to be 303.

With “hIgG1 M252Y/S254T/V308P, O4 VH with Ab6 light chain (antibody)”, in assay [2], the equilibrium dissociation constant (Kd) (in general, the constant that tells how readily two partners part at equilibrium) worked out at 31.7 nM; the koff (usually the rate constant with which the complex falls apart) was determined as 0.0177 s⁻¹; the kon (in general, the rate constant with which the complex forms) was found to be 557000 M⁻¹ s⁻¹. In assay [3], the Kd amounted to 76700 nM, the off-rate (koff) was found to be 1.13 s⁻¹ and the association rate constant (kon) was determined as 14700 M⁻¹ s⁻¹.

Take “hIgG1 M252Y/T256K/V308P/N434W, O4 VH with Ab6 light chain (antibody)”: the results for the Kd in assay [2] and in assay [3] were 1.31 nM and 239 nM, respectively. The substance further registered an off-rate constant (koff) in assay [2] of 0.00143 s⁻¹.

Regarding “anti-O4 hIgG1 M252Y/T256Y/V308P/N434Y (antibody)”, the Transcytosis Normalized to IAHA at pH 6.0 (ratio to IAHA) in assay [1] came out at 8.35.

Turning to “anti-O4 hIgG1 M252Y/T256G/V308P/N434Y (antibody)”, in assay [1], the Transcytosis Normalized to IAHA at pH 6.0 (ratio to IAHA) was 130.

As to “anti-O4 hIgG1 M252Y/T256S/V308P/N434W (antibody)”, the Transcytosis Normalized to IAHA at pH 6.0 (ratio to IAHA) in assay [1] was found to be 159.

As for “anti-O4 hIgG1 M252Y/T256E/V308P/N434F (antibody)”, the Transcytosis Normalized to IAHA at pH 6.0 (ratio to IAHA) in assay [1] came to 182.

Consider “anti-O4 hIgG1 M252Y/T256E/V308P/N434H (antibody)”, for which the Transcytosis Normalized to IAHA at pH 6.0 (ratio to IAHA) in assay [1] is 155.

With “anti-O4 hIgG1 M252Y/T256I/V308P/N434Y (antibody)”, the Transcytosis Normalized to IAHA at pH 6.0 (ratio to IAHA) in assay [1] was 126.

On to “anti-O4 hIgG1 M252Y/T256Q/V308P/N434W (antibody)”, for which the Transcytosis Normalized to IAHA at pH 6.0 (ratio to IAHA) in assay [1] worked out at 156.

In assay [2], “hIgG1 M252Y/N286E/V308P/M428I/N434Y, O4 VH with Ab6 light chain (antibody)” yielded a Kd of 0.109 nM, a koff of 0.000201 s⁻¹ and a kon of 1.84e+06 M⁻¹ s⁻¹. Further, in assay [3], the dissociation constant (Kd) was found to be 1030 nM, the dissociation rate constant (koff) amounted to 1.03 s⁻¹ and the kon was determined as 1e+06 M⁻¹ s⁻¹.

Regarding “anti-O4 hIgG1 M252Y/T256S/V308P/N434Y (antibody)”, the Transcytosis Normalized to IAHA at pH 6.0 (ratio to IAHA) in assay [1] worked out at 156.

As to “anti-O4 hIgG1 M252Y/T256A/V308P/N434Y (antibody)”, the Transcytosis Normalized to IAHA at pH 6.0 (ratio to IAHA) in assay [1] turned out to be 193.

As to “anti-O4 hIgG1 M252Y/T256H/V308P/N434F (antibody)”, the Transcytosis Normalized to IAHA at pH 6.0 (ratio to IAHA) in assay [1] came to 192.

For “anti-O4 hIgG1 M252Y/T256P/V308P/N434Y (antibody)”, the Transcytosis Normalized to IAHA at pH 6.0 (ratio to IAHA) in assay [1] was 132.

Regarding “anti-O4 hIgG1 M252Y/T256V/V308P/N434W (antibody)”, in assay [1], the Transcytosis Normalized to IAHA at pH 6.0 (ratio to IAHA) is 209.

As for “anti-O4 hIgG1 M252Y/T256Q/V308P/N434Y (antibody)”, in assay [1], the Transcytosis Normalized to IAHA at pH 6.0 (ratio to IAHA) was 286.

For the substance “anti-O4 hIgG1 M252Y/T256R/V308P/N434W (antibody)”, the Transcytosis Normalized to IAHA at pH 6.0 (ratio to IAHA) in assay [1] was 162.

Take “anti-O4 hIgG1 M252Y/T256A/V308P/N434W (antibody)”: the Transcytosis Normalized to IAHA at pH 6.0 (ratio to IAHA) in assay [1] turned out to be 190.

In assay [2], “hIgG1 M252Y/S254T/T256E/V308P/N434W, O4 VH with Ab6 light chain (antibody)” returned a dissociation constant (Kd) of 0.471 nM, a koff of 0.000795 s⁻¹ and a kon of 1.69e+06 M⁻¹ s⁻¹. In assay [3], this substance returned a Kd of 122 nM, a koff of 0.00101 s⁻¹ and an association rate constant (kon) of 8320 M⁻¹ s⁻¹.

Take “anti-O4 hIgG1 M252Y/T256F/V308P/N434F (antibody)”: the Transcytosis Normalized to IAHA at pH 6.0 (ratio to IAHA) in assay [1] was 60.4.

In the case of “anti-O4 hIgG1 M252Y/T256V/V308P/N434F (antibody)”, the Transcytosis Normalized to IAHA at pH 6.0 (ratio to IAHA) in assay [1] turned out to be 98.9.

On to “hIgG1 M252Y/V308P, O4 VH with Ab6 light chain (antibody)”, for which, in assay [2], the Kd was determined as 37.4 nM, the off-rate (koff) came to 0.0279 s⁻¹ and the kon worked out at 745000 M⁻¹ s⁻¹. Moreover, in assay [3], the Kd was found to be 51.8 nM, the dissociation rate constant (koff) is 0.00221 s⁻¹ and the kon amounted to 42600 M⁻¹ s⁻¹.

For “hIgG1 M252Y/S254T/T256E/V308P, O4 VH with Ab6 light chain (antibody)”, in assay [2], the Kd turned out to be 21.5 nM, the off-rate constant (koff) is 0.0139 s⁻¹ and the on-rate constant (kon) was determined as 648000 M⁻¹ s⁻¹. In assay [3], this substance had a dissociation constant Kd of 975 nM, a dissociation rate constant (koff) of 1.96 s⁻¹ and an association rate constant (kon) of 2.01e+06 M⁻¹ s⁻¹.

In the case of “hIgG1 M252Y/N434Y/Y436V, O4 VH with Ab6 light chain (antibody)”, in assay [2], the Kd came to 5.48 nM, the koff was determined as 0.00756 s⁻¹ and the kon was 1.38e+06 M⁻¹ s⁻¹. In assay [3], this substance showed a Kd of 25700 nM, a koff of 1.14 s⁻¹ and an on-rate (kon) of 44300 M⁻¹ s⁻¹.

With “anti-O4 hIgG1 M252Y/T256F/V308P/N434Y (antibody)”, in assay [1], the Transcytosis Normalized to IAHA at pH 6.0 (ratio to IAHA) was 193.

For the substance “anti-O4 hIgG1 M252Y/T256N/V308P/N434Y (antibody)”, the Transcytosis Normalized to IAHA at pH 6.0 (ratio to IAHA) in assay [1] came to 174.
